Drawing on patent US20220162261A1 (published 2022), this text covers IC50 for 25 molecules.

Bridge positions count the residues as written; N and C are the ends. Square brackets hold non-standard residues; d marks the D form. Ends that are not written are not given here. Phe(4-COOH) = N[C@@H](Cc1ccc(C(=O)O)cc1)C(=O)O; NMeR = CN[C@@H](CCCNC(=N)N)C(=O)O; NMeE = CN[C@@H](CCC(=O)O)C(=O)O; DIG = diglycolic acid (linker); Pen = CC(C)(S)[C@H](N)C(=O)O

The target in the test is T1, human α4β7 integrin on cells (human, UniProt P13612 34-1032; P26010 20-798).
T1 construct: whole, on cells; also called α4β7 cell (Hu); RPMI8866 cells
In words: RPMI8866 cell adhesion to MAdCAM-1.

B1: SEQ ID NO: 4 (peptide)
peptide: Ac-[dK]C[NMeR]SDTLCW[dK]-NH2
modifications: disulfide 2-8 (inferred); also: dimer linked by DIG, attachment not given here
B1 yielded an IC50 above 10 nM.

B2: SEQ ID NO: 1 (peptide)
peptide: Ac-[Pen][NMeR]SDTL[Pen]W[βGlu][dK]-NH2
modifications: disulfide 1-7; not fully specified (residue 10); printed as (Ac Pen N-Me-R S D T L Pen W Beta-E k NH2)2 DIG; also: homodimer: two subunits joined by DIG linker
B2 had a half-maximal inhibitory concentration (IC50) above 50 nM.

B3: SEQ ID NO: 72 (peptide)
peptide: Ac-[Pen][NMeR]SDTL[Pen]W[dE][dK]-NH2
modifications: disulfide 1-7; not fully specified (residue 10); printed as (Ac Pen N-Me-R S D T L Pen W e k NH2)2 IDA PEG4 Biotine, disulfide Pen-Pen; also: homodimer: two subunits linked by IDA via D-Lys10 side chain, PEG4-Biotine on the linker
In turn, B3 had a 50% inhibitory concentration (IC50) above 25 nM.

B4: SEQ ID NO: 83 (peptide)
peptide: Ac-[Pen][NMeR]SDTL[Pen]WN[dK]-NH2
modifications: disulfide 1-7; not fully specified (residue 10); printed as (Ac Pen N-Me-R S D T L Pen W N k NH2)2 DIG, disulfide Pen-Pen; also: homodimer: two subunits linked by DIG via D-Lys10 side chain
The molecule B4 registered an IC50 above 50 nM.

B5: SEQ ID NO: 70 (peptide)
peptide: Ac-[Pen][NMeR]SDTL[Pen]W[dE][dK]-NH2
modifications: disulfide 1-7; not fully specified (residue 10); printed as (Ac Pen N-Me-R S D T L Pen W e k NH2)2 IDA, disulfide Pen-Pen; also: homodimer via IDA linker
Take B5: the IC50 was above 25 nM.

B6: SEQ ID NO: 65 (peptide)
peptide: Ac-[Pen][NMeR]SDTL[Pen]WE[dK](Ac)
modifications: disulfide 1-7
With B6, the IC50 was above 10000 nM.

B7: SEQ ID NO: 104 (peptide)
peptide: Ac-[Pen][NMeR]SDTL[Pen]W[dH][dK]-NH2
modifications: disulfide 1-7; not fully specified (residue 10); printed as (Ac Pen N-Me-R S D T L Pen W h k NH2)2 DIG, disulfide Pen-Pen; also: homodimer: two subunits joined by DIG linker
Turning to B7, the IC50 is above 100 nM.

B8: SEQ ID NO: 95 (peptide)
peptide: Ac-[Pen][NMeR]SDTL[Pen]WPK(DIG)-NH2
modifications: disulfide 1-7; also: homodimer (…)2 DIG: the two subunits are joined through the K10 NZ by the DIG linker
Consider B8, for which the IC50 was above 100 nM.

B9: SEQ ID NO: 94 (peptide)
peptide: Ac-[Pen][NMeR]SDTL[Pen]WP[dK](DIG)-NH2
modifications: disulfide 1-7; also: homodimer (…)2 DIG: the two subunits are joined through the K10 NZ by the DIG linker
The molecule B9 came in with a concentration for half-maximal inhibition (IC50) above 100 nM.

B10: SEQ ID NO: 26 (peptide)
peptide: Ac-[Pen][NMeR]SDTL[Pen]HY[dK]-NH2
modifications: disulfide 1-7; not fully specified (residue 10); printed as (Ac Pen N-Me-R S D T L Pen H Y k NH2)2 DIG, disulfide Pen-Pen; also: dimer, two subunits joined by DIG linker
Molecule B10 registered an IC50 above 100 nM.

B11: SEQ ID NO: 66 (peptide)
peptide: Ac-[Pen][NMeR]SDTL[Pen]W[dE][dK](Ac)
modifications: disulfide 1-7
On to B11, for which the IC50 was above 10000 nM.

B12: SEQ ID NO: 123 (peptide)
peptide: Ac-[Pen][NMeR]SDTL[Pen]Y[dE][dK]-NH2
modifications: disulfide 1-7; not fully specified (residue 10); printed as (Ac Pen N-Me-R S D T L Pen Y e k NH2)2 DIG, disulfide Pen-Pen; also: homodimer: two subunits joined by DIG linker
B12 came in with an IC50 above 50 nM.

B13: SEQ ID NO: 82 (peptide)
peptide: Ac-[Pen][NMeR]SDTL[Pen]WQ[dK]-NH2
modifications: disulfide 1-7; not fully specified (residue 10); printed as (Ac Pen N-Me-R S D T L Pen W Q k NH2)2 DIG, disulfide Pen-Pen; also: homodimer: two subunits linked by DIG via D-Lys10 side chain
Regarding B13, the IC50 is above 50 nM.

B14: SEQ ID NO: 124 (peptide)
peptide: Ac-[Pen][NMeR]SDTL[Pen]H[dE][dK]-NH2
modifications: disulfide 1-7; not fully specified (residue 10); printed as (Ac Pen N-Me-R S D T L Pen H e k NH2)2 DIG, disulfide Pen-Pen; also: homodimer: two subunits joined by DIG linker
As for B14, the half-inhibitory concentration (IC50) was above 100 nM.

B15: SEQ ID NO: 25 (peptide)
peptide: Ac-[Pen][NMeR]SDTL[Pen]HE[dK]-NH2
modifications: disulfide 1-7; not fully specified (residue 10); printed as (Ac Pen N-Me-R S D T L Pen H E k NH2)2 DIG, disulfide Pen-Pen; also: dimer, two subunits joined by DIG linker
The molecule B15 returned an IC50 above 10 nM.

B16: SEQ ID NO: 87 (peptide)
peptide: Ac-[Pen][NMeR]SDTL[Pen]WD[dK]-NH2
modifications: disulfide 1-7; not fully specified (residue 10); printed as (Ac Pen N-Me-R S D T L Pen W D k NH2)2 DIG, disulfide Pen-Pen; also: homodimer: two subunits linked by DIG via D-Lys10 side chain
B16 returned an IC50 above 25 nM.

B17: SEQ ID NO: 92 (peptide)
peptide: Ac-[Pen][NMeR]SDTL[Pen]W[dY][dK](DIG)-NH2
modifications: disulfide 1-7; also: homodimer (…)2 DIG: the two subunits are joined through the K10 NZ by the DIG linker
For B17, the IC50 is above 50 nM.

B18: SEQ ID NO: 28 (peptide)
peptide: Ac-[Pen][NMeR]SDTL[Pen][dW]E[dK]-NH2
modifications: disulfide 1-7; not fully specified (residue 10); printed as (Ac Pen N-Me-R S D T L Pen w E k NH2)2 DIG, disulfide Pen-Pen; also: dimer, two subunits joined by DIG linker
Regarding B18, the IC50 was above 50 nM.

B19: SEQ ID NO: 110 (peptide)
peptide: Ac-[Pen][NMeR]SDTL[Pen]W[dW][dK]-NH2
modifications: disulfide 1-7; not fully specified (residue 10); printed as (Ac Pen N-Me-R S D T L Pen W w k NH2)2 DIG, disulfide Pen-Pen; also: homodimer: two subunits joined by DIG linker
Molecule B19 gave an IC50 above 10 nM.

B20: SEQ ID NO: 105 (peptide)
peptide: Ac-[Pen][NMeR]SDTL[Pen]W[Phe(4-COOH)][dK]-NH2
modifications: disulfide 1-7; not fully specified (residue 10); printed as (Ac Pen N-Me-R S D T L Pen W F(4-COOH) k NH2)2 DIG, disulfide Pen-Pen; also: homodimer: two subunits joined by DIG linker
Turning to B20, the IC50 is above 50 nM.

B21: SEQ ID NO: 91 (peptide)
peptide: Ac-[Pen][NMeR]SDTL[Pen]W[dF][dK]-NH2
modifications: disulfide 1-7; not fully specified (residue 10); printed as (Ac Pen N-Me-R S D T L Pen W f k NH2)2 DIG, disulfide Pen-Pen; also: homodimer via DIG linker
Consider B21, for which the IC50 was above 100 nM.

B22: SEQ ID NO: 71 (peptide)
peptide: Ac-[Pen][NMeR]SDTL[Pen]W[dE][dK]-NH2
modifications: disulfide 1-7; not fully specified (residue 10); printed as (Ac Pen N-Me-R S D T L Pen W e k NH2)2 IDA Biotine, disulfide Pen-Pen; also: homodimer via IDA linker bearing biotin
On to B22, for which the half-inhibitory concentration (IC50) was above 25 nM.

B23: SEQ ID NO: 31 (peptide)
peptide: Ac-[Pen][NMeR]SDTL[Pen]W[NMeE][dK]-NH2
modifications: disulfide 1-7; not fully specified (residue 10); printed as (Ac Pen N-Me-R S D T L Pen W N-Me-E k NH2)2 DIG, disulfide Pen-Pen; also: dimer, two subunits joined by DIG linker
B23: the IC50 was above 50 nM.

B24: SEQ ID NO: 85 (peptide)
peptide: Ac-[Pen][NMeR]SDTL[Pen]WF[dK]-NH2
modifications: disulfide 1-7; not fully specified (residue 10); printed as (Ac Pen N-Me-R S D T L Pen W F k NH2)2 DIG, disulfide Pen-Pen; also: homodimer: two subunits linked by DIG via D-Lys10 side chain
B24 yielded a 50% inhibitory concentration (IC50) of at most 10 nM.

B25: SEQ ID NO: 96 (peptide)
peptide: Ac-[Pen][NMeR]SDTL[Pen]W[dP]K-NH2
modifications: disulfide 1-7; also: homodimer, two subunits linked by DIG at Lys10
As for B25, the half-maximal inhibitory concentration (IC50) was above 50 nM.
